According to patent US11407840B2, “Antibodies to M(H)DM2/4 and their use in diagnosing and treating cancer” (NomoCan Pharmaceuticals LLC, priority 2017, dated 2022):
“Also recorded” adds a separate entry of the source.

B1: NMC-103: mouse monoclonal antibody, IgG1 isotype, binds NMC-P1 (SEQ ID NO:1); VH SEQ ID NO:36, VL SEQ ID NO:37 (antibody, V domains shown)
VH: EVQLQESGGGLVQPGGSLRLSCTTSGFTFTHYYMSWVRQPPGKALEWLGFIRNKAKGYTAEYSASVKGRFTISRDNSQSILYLQMNTLRPEDSATYYCARDIGDNWGQGTLVTVSS
VL: DIVMTQAAFSNPVTLGTSASISCRSSKNLLHSNGITYLYWYLQRPGQSPQLLISRVSNLASGVPNRFSGSESGTDFTLRISRVEAEDVGVYFCAQLLELPYTFGGGTKLEIK
modifications: mAb NMC-103 Heavy Chain Variable Region; mAb NMC-103 Light Chain Variable Region
B2: NMC-204: mouse monoclonal antibody, IgG3 isotype, binds NMC-P2 (SEQ ID NO:2); VH SEQ ID NO:38, VL SEQ ID NO:39 (antibody, V domains shown)
VH: EVQLQESGSVLVRPGASVKLSCKASGDTLSGSWMHWAMQRPGQGLEWIGEIHLNRGTTNYNEKFKGKATVTVDTSSSTAYVDLSSLTSEDSAVYYCARSPGFAYWGQGTLVTVSA
VL: GIVMTQAAPSVPVTPGESVSISCRSSKSLLHSNGNSYLYWFLQRPGQSPQLLIYRMSNLASGVPDRFSGSGSGTAFTLRITRVEAEDVGVYYCMQHLEYPFTFGSGTKLEIK
modifications: mAb NMC-204 Heavy Chain Variable Region; mAb NMC-204 Light Chain Variable Region

Tests used:
[1] = target: NMC-P1 peptide (SEQ ID NO:1), amino acids 1-15 of HDM2 (Homo sapiens, UniProt Q00987); test: Peptide-ELISA, NMC-P1 peptide; type: binding; settings: 5 μg/ml peptide dried on plate; OD 450 nm
Description: (§1) Peptide-ELISA Methodology: 5 μg/ml of NMC-P1, NMC-P2 or NMC-P3 peptide antigen was dried onto a 96-well ELISA plate overnight. Plates were then blocked with 5% BSA in 1× phosphate-buffered saline (PBS) (100 ? /well) for 2 hours at room temperature. Microplate wells were then washed 5 times with 300 ? of ice cold 1× PBS. Appropriate dilutions of monoclonal antibodies NMC-103, NMC-204 or NMC-303 in 1% bovine serum albumin (BSA) in PBS solution were then incubated with their corresponding peptides (NMC-P1, NMC-P2 or NMC-P3, respectively) at room temperature. After 2 hours, wells were washed 5 times with 300 ? ? ice-cold PBS/well and 100 ? secondary antibody (HRP-labeled Goat anti-Mouse F(ab′)2 H&L cross-adsorbed secondary antibody (HRP-GaM F(ab′)2), ThermoFisher, Cat. No. A24524) diluted 1:2500 to 1:5000 in PBS-1% BSA solution were added and the incubation continued at room temperature. After 1 hour, the wells were washed again 5 times with 200 ? of ice-cold PBS and 50 μiL of the TMB Substrate Solution (1-StepTM Ultra TMB-ELISA, ThermoFisher, Cat. No. 34028) were added to each well and color was allowed to develop for 30 minutes at room temperature. The reaction was stopped by addition of 50 μ ? ? of stop solution (ThermoFisher, Cat. No. SSO4) to each well and absorbance of each well was read immediately for optical density (OD) at 450 nm.

[2] = target: NMC-P2 peptide (SEQ ID NO:2), amino acids 15-25 of HDM2 (Homo sapiens, UniProt Q00987); test: Peptide-ELISA, NMC-P2 peptide; type: binding; settings: 5 μg/ml peptide dried on plate; OD 450 nm
Description: as §1

[3] = target: T1, recombinant full-length HDM2 protein (GST tagged) (Homo sapiens, UniProt Q00987); test: Western blot (immunoblot); type: binding; settings: 1 μg/well protein; band at approximately 83 kD; FIG. 2
T1 construct: reacted with the recombinant full-length HDM2 protein; purchased Abcam ab188727
Description: Western Blot: As for immunoblots, 1 μg/well of recombinant FIDM2 protein (GST tagged, Abeam, Cat. No. ab188727) was separated on 8-16% sodium dodecyl sulfate (SDS) polyacrylamide gel and proteins were then transferred to polyvinylidene difluoride (PVDF) membrane. The membrane was blocked with 5% milk followed by incubation with monoclonal antibody NMC-103, NMC-204 or NMC-303 at 1 μg/πι ? in 1% milk in PBS for 2 hours. The membrane was then washed×3 times (10 minutes each) and incubated for 1 hour with corresponding HRP-conjugated secondary antibody (Goat anti-Mouse IgG (H&L), F(ab′)2 Frag Cross-adsorbed HRP (HRP-GaM F(ab′)2), ThermoFisher, Cat. No. A24524) diluted 1:5000 in 1% BSA-PBS. The membrane was then washed×3 times and incubated with Pierce ECL Plus Western Blotting Substrate (ThermoFisher, Cat. No. #32132) for 10 min before developing on a LICOR Scanner.

[4] = system: human breast cancer MCF-7 cells; test: Cell-ELISA, intact cells; type: binding; settings: mAb 1 μg/mL, FIGS. 3-5
Description: (§2) Cell-ELISA Methodology: 8,000-10,000 cells/well of a 96-well microplate were grown overnight. The next day, unbound cells were washed off with sterile 1× PBS. The cells in each well were fixed with freshly prepared 4% buffered paraformaldehyde (pH 7.2) for 1 hour followed by 3 washes with 1× PBS. The wells were then blocked with 5% BSA in PBS (100 ? /well) for 2 hours at room temperature. Microplate wells were then washed 5 times with 300 ? of ice cold 1× PBS. MAbs NMC-103, NMC-204 or NMC-303 at 1 μg/mL in 1% BSA/PBS were then incubated with various cancer or normal untransformed cells for 2 hours at room temperature. Wells were then washed with 300 ? of ice-cold 1× PBS for 5 times and corresponding secondary antibody HRP-GaM F(ab′)2 diluted 1:2500 or 1:5000 in PBS with 1% BSA were added at 100 ? /well for 1 hour at room temperature followed by washing 5 times with 300 ? of ice-cold 1× PBS. TMB Substrate Solution (1-StepTM Ultra TMB-ELISA, ThermoFisher, Cat. No. 34028) was then added at 50 ? ? to each microplate well and incubated at room temperature for 30 minutes. The reaction was stopped by addition of 50 μL, of stop solution (ThermoFisher, Cat. No. SSO4) to each well and absorbance of each well was measured at OD450 nm. The absorbance value of each experimental well was corrected for the absorbance value obtained from wells treated with isotype-identical mAbs included in each experiment. The results are thus expressed as “relative binding”.

[5] = system: human pancreatic cancer MIA PaCa-2 cells; test: Cell-ELISA, intact cells; type: binding; settings: for binding to intact, EDTA-released MiaPaCa-2 cells, cell-ELISA: EDTA 10 mmols, pH 7.2, 5 min, 37° C., FIG. 10; for binding to intact MIA PaCa-2 cells when competed with NMC-P2 peptide / binding to intact MIA PaCa-2 cells when competed with soluble NMC-P1 peptide: FIG. 8; for relative binding (reactivity) to intact cells, cell-ELISA: MIA PaCa-2, mAb 1 μg/mL, FIGS. 3-5
Description: as §2

[6] = system: Human pancreatic cancer MIAPaCa-2 cells; test: In vitro growth inhibition (cell count); type: cell-based; settings: overnight
Description: Methodology used: Human pancreatic cancer MIAPaCa-2 cells (8,000 cells/well) were pre-incubated with mAb NMC-103, NMC-204 and anti-Cytochrome-C antibody (Santa Cruz, Cat No. sc-13156) at 1, 5 and 10 μg/mL, respectively. Cells in the presence of one of the antibodies at various concentrations were then plated in triplicate in 96-well cell culture plates overnight. The next day, each plate well was analyzed morphologically and a picture was taken from each well using EVOS FL microscope. Cell count was also performed and the number of living cells was graphed as % of control.

T1 sequence (Q00987 whole entry): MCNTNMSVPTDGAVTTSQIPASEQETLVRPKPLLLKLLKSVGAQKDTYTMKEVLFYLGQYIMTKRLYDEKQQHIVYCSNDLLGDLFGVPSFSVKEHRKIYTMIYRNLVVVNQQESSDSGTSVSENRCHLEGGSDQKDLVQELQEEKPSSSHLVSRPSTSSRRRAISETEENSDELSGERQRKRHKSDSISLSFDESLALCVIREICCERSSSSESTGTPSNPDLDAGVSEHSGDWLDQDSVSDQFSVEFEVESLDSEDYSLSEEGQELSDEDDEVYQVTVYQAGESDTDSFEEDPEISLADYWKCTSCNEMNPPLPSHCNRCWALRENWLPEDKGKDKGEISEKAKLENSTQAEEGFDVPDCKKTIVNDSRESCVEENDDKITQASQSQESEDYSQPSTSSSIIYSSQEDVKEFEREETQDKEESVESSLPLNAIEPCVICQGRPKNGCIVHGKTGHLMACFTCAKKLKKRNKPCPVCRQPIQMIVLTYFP

Molecule	binding to NMC-P1 peptide (peptide-ELISA) [1]	binding to NMC-P2 peptide (peptide-ELISA) [2]	reactivity with recombinant full-length HDM2-GST protein in immunoblot [3]	relative binding (reactivity) to intact cells, cell-ELISA [4]	binding to intact, EDTA-released MiaPaCa-2 cells, cell-ELISA [5]	binding to intact MIA PaCa-2 cells when competed with NMC-P2 peptide [5]	binding to intact MIA PaCa-2 cells when competed with soluble NMC-P1 peptide [5]	binding to intact MIA PaCa-2 cells after pre-incubation with full-length recombinant HDM2 ([5]; FIG. 9)	relative binding (reactivity) to intact cells, cell-ELISA [5]	growth inhibitory effect (FIG. 12D; number of living cells graphed as % of control) ([6]; antibody 1 μg/mL)	growth inhibitory effect (FIG. 12D; number of living cells graphed as % of control) ([6]; antibody 5 μg/mL)	growth inhibitory effect (FIG. 12D; number of living cells graphed as % of control) ([6]; antibody 10 μg/mL)
B1	bound; also recorded: strong binding	did not bind	reacted	reactivity	bound	did not have any effect	completely abolished	reduced	reactivity	65%	84%	91%
B2	did not bind	bound; also recorded: strong binding	reacted	reactivity	bound	competed	not with NMC-P1	–	reactivity	65%	73%	77%
